From PMC7374751, “TIMP-3 facilitates binding of target metalloproteinases to the endocytic receptor LRP-1 and promotes scavenging of MMP-1” (Scientific Reports, 2020)

How the values were obtained:
Settings in all cases: both partners purified
[1] = target: T1, MMP-3 catalytic domain (MMP-3ΔC) (UniProt P08254 100-272); assay: enzyme activity of pre-formed complexes against synthetic substrates; 10 nM [35S]TIMP-3 incubated with an equimolar concentration of metalloproteinase for 1 h at 37 °C; complex formation and stability over 24 h checked by activity
T1 construct: catalytic domain of MMP-3; pro-domain removed with APMA

[2] = target: T2, FLAG-tagged ADAMTS-5 lacking the C-terminal thrombospondin domain (ADAMTS5-2) (UniProt Q9UNA0 262-874); assay: as above
T2 construct: ADAMTS-5 lacking the C-terminal thrombospondin domain
T2 sequence (looked up): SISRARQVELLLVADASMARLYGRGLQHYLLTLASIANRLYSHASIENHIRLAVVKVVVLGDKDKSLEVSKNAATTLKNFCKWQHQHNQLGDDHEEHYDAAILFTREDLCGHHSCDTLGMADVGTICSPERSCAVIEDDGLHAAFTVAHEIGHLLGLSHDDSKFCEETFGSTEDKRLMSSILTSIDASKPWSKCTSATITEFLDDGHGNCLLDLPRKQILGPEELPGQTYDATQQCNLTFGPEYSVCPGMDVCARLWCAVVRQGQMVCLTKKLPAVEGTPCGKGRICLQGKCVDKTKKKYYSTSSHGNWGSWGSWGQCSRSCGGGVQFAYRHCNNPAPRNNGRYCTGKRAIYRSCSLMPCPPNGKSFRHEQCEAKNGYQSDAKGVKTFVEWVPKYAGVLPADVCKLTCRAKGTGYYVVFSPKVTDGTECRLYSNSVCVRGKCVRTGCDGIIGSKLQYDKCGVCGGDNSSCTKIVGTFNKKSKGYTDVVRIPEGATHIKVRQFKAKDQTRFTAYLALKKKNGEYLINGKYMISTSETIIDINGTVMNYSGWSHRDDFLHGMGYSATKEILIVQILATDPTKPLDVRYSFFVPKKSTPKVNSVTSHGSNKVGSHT

[3] = target: T3, low-density lipoprotein receptor-related protein 1 (LRP-1) (UniProt Q07954 20-4544); assay: SPR; BIAcore T200; LRP-1 immobilised on a CM5 chip by amine coupling (3000 RU); 25 °C; 150 mM NaCl, 10 mM CaCl2, 50 mM Tris-HCl, 0.01% Tween-20, pH 7.5; 30 μl/min; ligands or pre-formed complexes injected; one-site binding model; triplicate
T3 construct: low-density lipoprotein receptor-related protein 1 (LRP-1), bought from Biomac; source: bought: Biomac (Leipzig, Germany)

[4] = target: T4, FLAG-tagged ADAMTS-4 lacking the C-terminal spacer domain (ADAMTS4-2) (UniProt O75173 213-685); assay: enzyme inhibition kinetics (fluorogenic peptide substrates); apparent Ki; enzyme pre-incubated with TIMP-3 (0.5-100 nM) 1 h at 37 °C, equilibrium rate of substrate hydrolysis; TNC buffer (50 mM Tris-HCl pH 7.5, 150 mM NaCl, 10 mM CaCl2, 0.05% Brij-35, 0.02% NaN3), 37 °C; tight-binding equation
T4 construct: ADAMTS-4 lacking the C-terminal spacer domain
T4 sequence (looked up): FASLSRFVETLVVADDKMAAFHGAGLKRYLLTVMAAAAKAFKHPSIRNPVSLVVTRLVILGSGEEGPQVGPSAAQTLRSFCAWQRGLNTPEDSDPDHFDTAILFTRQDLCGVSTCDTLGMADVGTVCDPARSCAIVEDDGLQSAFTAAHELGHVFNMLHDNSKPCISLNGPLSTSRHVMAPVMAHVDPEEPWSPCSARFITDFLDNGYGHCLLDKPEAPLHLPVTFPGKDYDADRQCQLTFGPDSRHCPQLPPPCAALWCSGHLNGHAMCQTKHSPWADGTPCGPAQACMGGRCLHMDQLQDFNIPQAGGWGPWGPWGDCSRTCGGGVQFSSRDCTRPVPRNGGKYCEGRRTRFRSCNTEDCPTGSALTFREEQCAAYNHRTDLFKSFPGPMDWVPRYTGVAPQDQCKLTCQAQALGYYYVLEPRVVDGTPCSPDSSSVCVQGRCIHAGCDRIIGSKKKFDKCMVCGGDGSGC

T3 sequence (Q07954 20-4544): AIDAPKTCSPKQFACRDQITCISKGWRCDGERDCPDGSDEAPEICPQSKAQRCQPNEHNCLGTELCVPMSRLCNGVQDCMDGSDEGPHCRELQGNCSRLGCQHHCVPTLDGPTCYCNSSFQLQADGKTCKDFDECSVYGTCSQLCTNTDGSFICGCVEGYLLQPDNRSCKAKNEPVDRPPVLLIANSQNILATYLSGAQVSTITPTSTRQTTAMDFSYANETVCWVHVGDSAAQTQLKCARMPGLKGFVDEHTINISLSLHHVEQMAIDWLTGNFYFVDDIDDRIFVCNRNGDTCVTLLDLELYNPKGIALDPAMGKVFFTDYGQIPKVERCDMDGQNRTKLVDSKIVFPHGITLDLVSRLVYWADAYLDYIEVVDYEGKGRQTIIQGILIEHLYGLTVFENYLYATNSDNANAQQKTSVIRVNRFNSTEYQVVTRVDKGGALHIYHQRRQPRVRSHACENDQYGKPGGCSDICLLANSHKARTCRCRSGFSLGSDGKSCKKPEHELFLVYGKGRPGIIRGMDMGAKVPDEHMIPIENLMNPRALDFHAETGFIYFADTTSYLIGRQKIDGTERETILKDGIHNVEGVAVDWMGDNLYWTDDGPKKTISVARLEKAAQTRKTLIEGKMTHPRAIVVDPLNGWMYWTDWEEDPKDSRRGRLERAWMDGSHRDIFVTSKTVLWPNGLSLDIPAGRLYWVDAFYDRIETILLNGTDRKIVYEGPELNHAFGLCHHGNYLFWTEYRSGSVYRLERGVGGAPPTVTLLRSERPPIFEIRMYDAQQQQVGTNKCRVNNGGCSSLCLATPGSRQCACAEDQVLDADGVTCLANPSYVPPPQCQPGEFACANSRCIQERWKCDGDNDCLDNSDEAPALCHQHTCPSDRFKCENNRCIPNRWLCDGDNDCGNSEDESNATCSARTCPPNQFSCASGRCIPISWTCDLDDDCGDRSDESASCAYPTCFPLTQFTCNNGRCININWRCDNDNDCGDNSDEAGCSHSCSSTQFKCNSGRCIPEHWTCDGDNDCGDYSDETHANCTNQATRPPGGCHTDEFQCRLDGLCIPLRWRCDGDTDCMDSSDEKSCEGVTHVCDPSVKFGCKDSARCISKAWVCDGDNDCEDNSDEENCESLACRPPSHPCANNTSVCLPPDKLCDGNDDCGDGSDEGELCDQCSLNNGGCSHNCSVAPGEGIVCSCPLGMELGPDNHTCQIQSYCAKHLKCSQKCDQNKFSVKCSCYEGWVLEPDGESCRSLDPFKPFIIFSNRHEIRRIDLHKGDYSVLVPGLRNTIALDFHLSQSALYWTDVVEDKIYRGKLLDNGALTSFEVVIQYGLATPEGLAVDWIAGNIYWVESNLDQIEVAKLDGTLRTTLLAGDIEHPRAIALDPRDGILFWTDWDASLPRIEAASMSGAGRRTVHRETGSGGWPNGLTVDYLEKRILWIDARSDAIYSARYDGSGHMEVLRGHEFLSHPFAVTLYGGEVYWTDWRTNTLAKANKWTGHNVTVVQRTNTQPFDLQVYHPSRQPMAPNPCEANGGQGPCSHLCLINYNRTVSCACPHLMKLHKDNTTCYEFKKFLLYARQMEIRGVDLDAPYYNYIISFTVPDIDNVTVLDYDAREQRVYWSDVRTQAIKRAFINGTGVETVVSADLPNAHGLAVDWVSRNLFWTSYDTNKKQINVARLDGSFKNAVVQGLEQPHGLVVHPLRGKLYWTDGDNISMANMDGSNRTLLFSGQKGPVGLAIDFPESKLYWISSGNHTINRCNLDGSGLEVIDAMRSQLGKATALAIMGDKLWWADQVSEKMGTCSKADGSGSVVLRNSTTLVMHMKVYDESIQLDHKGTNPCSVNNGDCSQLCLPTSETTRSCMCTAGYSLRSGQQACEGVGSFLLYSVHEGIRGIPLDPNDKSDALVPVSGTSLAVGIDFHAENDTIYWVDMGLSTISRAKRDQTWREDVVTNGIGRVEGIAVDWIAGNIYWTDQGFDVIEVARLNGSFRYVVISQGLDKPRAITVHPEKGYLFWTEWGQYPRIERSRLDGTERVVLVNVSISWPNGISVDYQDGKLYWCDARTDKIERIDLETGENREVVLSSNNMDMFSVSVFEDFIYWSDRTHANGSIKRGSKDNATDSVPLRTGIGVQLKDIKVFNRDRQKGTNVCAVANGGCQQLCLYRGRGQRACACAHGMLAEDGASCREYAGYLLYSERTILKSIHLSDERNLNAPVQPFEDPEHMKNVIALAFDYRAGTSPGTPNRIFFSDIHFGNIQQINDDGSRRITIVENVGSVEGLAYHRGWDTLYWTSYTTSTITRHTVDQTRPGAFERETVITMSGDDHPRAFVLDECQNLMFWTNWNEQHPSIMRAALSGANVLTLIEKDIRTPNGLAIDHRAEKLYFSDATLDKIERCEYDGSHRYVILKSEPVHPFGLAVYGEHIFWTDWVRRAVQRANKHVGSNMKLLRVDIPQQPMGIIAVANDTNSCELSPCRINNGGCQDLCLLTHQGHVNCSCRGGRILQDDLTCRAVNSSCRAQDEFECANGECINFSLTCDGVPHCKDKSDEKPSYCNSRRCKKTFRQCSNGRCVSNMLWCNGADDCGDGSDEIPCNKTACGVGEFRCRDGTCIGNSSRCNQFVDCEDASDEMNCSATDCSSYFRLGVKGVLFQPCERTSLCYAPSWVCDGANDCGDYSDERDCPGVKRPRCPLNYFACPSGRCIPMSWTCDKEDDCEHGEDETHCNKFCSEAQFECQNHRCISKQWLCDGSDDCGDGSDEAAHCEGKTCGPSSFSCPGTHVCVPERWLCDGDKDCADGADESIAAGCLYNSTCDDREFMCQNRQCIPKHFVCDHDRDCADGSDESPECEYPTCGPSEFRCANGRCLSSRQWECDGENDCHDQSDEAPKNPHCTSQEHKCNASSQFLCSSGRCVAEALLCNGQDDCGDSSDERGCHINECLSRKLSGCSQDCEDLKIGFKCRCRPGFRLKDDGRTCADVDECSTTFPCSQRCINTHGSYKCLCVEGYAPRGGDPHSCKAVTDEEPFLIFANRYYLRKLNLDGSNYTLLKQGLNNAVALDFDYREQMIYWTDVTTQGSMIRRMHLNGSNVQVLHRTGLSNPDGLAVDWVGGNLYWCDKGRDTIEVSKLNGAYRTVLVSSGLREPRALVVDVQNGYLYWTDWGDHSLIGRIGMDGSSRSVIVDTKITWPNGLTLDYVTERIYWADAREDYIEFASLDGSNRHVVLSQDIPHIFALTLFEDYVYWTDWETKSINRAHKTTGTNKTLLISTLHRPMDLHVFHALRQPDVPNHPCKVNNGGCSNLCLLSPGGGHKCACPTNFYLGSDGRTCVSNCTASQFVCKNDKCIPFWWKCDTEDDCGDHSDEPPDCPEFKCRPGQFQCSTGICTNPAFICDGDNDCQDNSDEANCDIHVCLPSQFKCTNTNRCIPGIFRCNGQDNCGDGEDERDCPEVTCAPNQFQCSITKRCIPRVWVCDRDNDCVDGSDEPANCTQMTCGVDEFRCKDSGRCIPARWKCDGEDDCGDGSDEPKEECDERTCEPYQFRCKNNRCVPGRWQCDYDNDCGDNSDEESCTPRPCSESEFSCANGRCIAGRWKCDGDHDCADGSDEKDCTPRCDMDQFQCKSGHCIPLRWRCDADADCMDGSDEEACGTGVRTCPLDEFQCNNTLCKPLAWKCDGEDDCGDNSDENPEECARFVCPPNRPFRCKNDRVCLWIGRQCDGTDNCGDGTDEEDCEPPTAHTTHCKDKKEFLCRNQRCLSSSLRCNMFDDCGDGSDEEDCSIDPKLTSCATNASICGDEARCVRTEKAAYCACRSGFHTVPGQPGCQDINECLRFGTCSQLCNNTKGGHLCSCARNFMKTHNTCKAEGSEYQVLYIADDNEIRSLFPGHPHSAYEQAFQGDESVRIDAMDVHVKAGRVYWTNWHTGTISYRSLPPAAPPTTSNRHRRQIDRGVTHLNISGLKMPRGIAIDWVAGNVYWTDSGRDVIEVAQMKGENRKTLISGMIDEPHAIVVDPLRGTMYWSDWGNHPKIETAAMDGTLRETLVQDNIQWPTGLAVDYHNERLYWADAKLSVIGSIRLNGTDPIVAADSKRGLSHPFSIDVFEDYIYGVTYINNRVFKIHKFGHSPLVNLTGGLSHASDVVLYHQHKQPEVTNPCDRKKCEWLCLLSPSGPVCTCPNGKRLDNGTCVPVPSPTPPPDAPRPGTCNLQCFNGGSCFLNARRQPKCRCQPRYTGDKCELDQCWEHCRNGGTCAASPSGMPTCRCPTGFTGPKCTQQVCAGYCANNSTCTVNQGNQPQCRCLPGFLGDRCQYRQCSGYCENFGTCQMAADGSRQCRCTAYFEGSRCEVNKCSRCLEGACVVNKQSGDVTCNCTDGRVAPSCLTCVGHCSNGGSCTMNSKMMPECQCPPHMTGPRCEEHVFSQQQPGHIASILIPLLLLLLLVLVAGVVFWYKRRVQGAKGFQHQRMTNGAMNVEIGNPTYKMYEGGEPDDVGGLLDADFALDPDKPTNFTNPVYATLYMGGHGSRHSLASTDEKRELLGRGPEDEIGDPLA
T1 sequence (P08254 100-272, stated change not applied): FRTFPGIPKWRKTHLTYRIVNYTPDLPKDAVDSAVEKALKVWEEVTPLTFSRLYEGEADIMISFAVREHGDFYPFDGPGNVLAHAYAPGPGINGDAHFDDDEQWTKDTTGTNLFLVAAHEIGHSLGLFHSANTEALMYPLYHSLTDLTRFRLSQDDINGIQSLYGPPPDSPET

B1: FLAG-tagged TIMP-3 (natural protein, UniProt P35625 24-211, looked up)
chain: CTCSPSHPQDAFCNSDIVIRAKVVGKKLVKEGPFGTLVYTIKQMKMYRGFTKMPHVQYIHTEASESLCGLKLEVNKYQYLLTGRVYDGKMYTGLCNFVERWDQLTLSQRKGLNYRYHLGCNCKIKSCYYLPCFVTSKNECLWTDMLSNFGYPGYQSKHYACIRQKGGYCSWYRGWAPPDKSIINATDP
notes: also called T3; [35S]TIMP-3
With B1 the “stoichiometry N” value [1] was 1, the “stoichiometry N” value [2] was 1 and the Kd [3] was 1.68 nM. For the same binder, the koff [3] was 0.00389 s⁻¹, the kon [3] was 2.31e+06 M⁻¹ s⁻¹ and the Ki [4] was 1.24 nM.
